Assay results reported in the supplement of paper PMC10567573.

B1: ACSBG2 (parent)
chain: FAQADALKGTLVSTLKEVKPTVFI
B2: TRIM15 (parent)
chain: LSQMGAQSSGKILLCPLCQEEEQA

Variants of: B1
Assay: protein stability index of a GFP-peptide fusion (GPS, HEK-293T) (PSI 1-6); higher = more stable
Details: c terminus: a fixed tail appended
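Further: lentivirally expressed fusions sorted by FACS into six bins by GFP to DsRed ratio, PSI derived from sequencing read proportions per bin multiplied by bin number.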

Protein stability index, by site and new letter:
V22: L 1.3 | T 2.77 | I 2.43 | Q 2.28 | K 2.45 | D 2.99 | A 2.73 | G 2.25 | P 2.02 | H 1.92 | N 1.98 | Y 1.67 | C 2.18 | R 2.94 | F 1.67 | S 2.05 | E 1.94
T21: W 3.06 | R 2 | N 1.92 | K 1.14 | V 4.03 | S 2.35 | I 4.12 | Y 1.64 | M 1.82 | Q 1.32 | H 1.61 | G 2.14 | P 1.22
I24: Q 2.23 | L 1.05 | F 4.5 | C 2.92 | W 1.26 | S 2.27 | P 2.27 | N 3.24 | T 2.36 | G 2.08 | K 2.41 | V 1.83 | H 2.02 | A 1.98 | M 1.16 | D 2.88
F23: I 1.65 | S 2.16 | K 2.69 | W 2.2 | Q 2.16 | E 2.3 | L 2.52 | M 1.86 | N 1.69 | H 1.75 | V 2.18 | G 2.36 | R 2.64 | A 1.96 | P 2.76 | C 2.52 | D 2.62 | Y 2.32 | T 1.73

Variants of: B2
Assay: as above
Details: c terminus: a fixed tail appended

Protein stability index of substitutions, site by site:
G10: F 2.74 | E 3.89 | N 4.54 | W 2.55 | C 3.86 | K 3.71 | M 3.83 | Q 3.58 | R 3.22 | L 2.53 | P 3.78 | H 3.71 | D 4.3 | Y 2.83 | V 3.19 | S 3.79 | T 3.71 | I 2.5
C15: D 5.58 | I 3.77 | M 4.64 | H 4.74 | Y 4.39 | T 5.05 | G 5.51 | R 4.43 | F 4.16 | S 4.98 | K 4.65 | E 5.1 | L 3.9 | P 4.96 | W 4.47 | Q 4.96 | N 5.22
L14: H 3.36 | N 3.56 | A 5.21 | C 3.94 | V 2.99 | R 4.15 | D 4.72 | T 4.66 | F 3.59 | Q 4.52 | W 2.93 | M 3.98 | Y 4.23 | S 4.72 | I 3.91
M4: P 4.94 | N 3.6 | A 4.66 | I 3.82 | S 4.08 | V 2.81 | F 3.26 | L 4.22 | G 3.2 | Y 3.76 | C 4.13 | R 3.92 | E 3.94
A6: M 3.3 | T 3.27 | C 3.37 | K 4.68 | D 3.75 | G 3.47 | P 3.8 | F 2.6 | W 3.94 | I 3.93 | S 4.02 | V 3.81 | H 4.33 | E 3.56 | R 3.17 | N 3.12 | Y 3.29
Q3: M 2.96 | I 3.11 | Y 3.24 | D 3.97 | F 2.9 | E 3.68 | T 3.58 | H 3.95 | W 2.23 | V 2.81 | N 3.55 | K 4.1 | P 4.9 | C 3.18 | R 3.23
L1: N 3.75 | M 3.52 | W 4.43 | Q 4.4 | V 3.97 | D 4.53 | P 3.44 | S 3.55 | G 3.96 | I 3.38 | Y 2.65 | A 3.1 | R 3.77 | E 3.99 | H 3.94 | K 3.7 | F 2.73
I12: Y 3.61 | A 4.19 | N 3.09 | H 3.51 | K 4.04 | E 3.56 | D 4.21 | G 4.59 | L 4.04 | T 3.42 | Q 4.27 | V 4.5 | M 3.79 | S 4.57 | F 3.52
K11: T 3 | G 2.27 | H 2.72 | W 2.76 | Q 3.9 | N 4.26 | V 2.04 | E 3.11 | R 3.03 | Y 2.64 | I 3.03 | F 2.44 | P 3.6 | L 1.76 | D 2.81 | S 3.79 | M 3.12 | C 2.79 | A 3.14
L17: K 3.6 | A 3.63 | H 3.79 | G 4.13 | F 3.23 | C 3.76 | D 4.97
S8: G 3.93 | T 3.55 | H 3.82 | Y 3.49 | V 3.51 | P 3.73 | I 3.14 | R 3.89 | E 3.82 | A 4.01 | N 3.82 | C 2.89 | F 2.76 | K 3.4 | W 2.65 | Q 3.27 | D 3.98
L13: R 4.71 | T 4.51 | E 4.24 | P 3.97 | A 4.87 | H 5.52 | S 4.5 | G 4.65 | I 4.08 | M 4.74 | Y 4.25 | C 4.67 | F 4.09 | Q 4.1 | K 4.65 | N 4.63 | D 4.5
P16: K 4.19 | V 3.29 | W 2.9 | T 3.91 | C 2.59 | N 4.1 | R 3.39 | F 4.36 | A 2.92 | Y 2.97 | D 4.05 | M 3.98 | Q 4.22 | H 3.8 | L 3.37
S2: I 1.9 | A 2.6 | D 5.08 | K 3.14 | F 2.96 | E 4 | H 3.43 | P 4.26 | Q 4.06 | R 3.7 | M 3.58 | T 3.71 | Y 3.63
S9: L 3.4 | M 2.57 | F 2.36 | T 3.8 | G 2.64 | H 3.71 | Q 2.65 | I 3 | Y 3.9 | D 3.7 | E 2.93 | C 3.86 | A 3.07 | N 3 | R 2.99 | P 3.49 | K 3.78 | W 2.96
Q7: T 3.99 | D 3.88 | L 2.8 | R 3.5 | N 4.07 | E 3.52 | W 3.84 | A 4.11 | S 3.77 | V 2.76 | I 2.74 | F 2.88 | H 4.53 | K 3.47 | C 3.71 | Y 3.24 | P 3.15 | G 3.58 | M 2.99
G5: D 3.49 | L 3.27 | A 3.49 | K 3.87 | R 3.32 | M 2.95 | T 3.7 | V 3.13 | H 3.14 | Q 3.92 | N 3.39 | Y 2.9 | C 3.92 | S 3.05 | I 2.98 | P 2.76 | F 3.22
